Values of other authors as cited in article PMC4489423.
Read-outs that look alike come from different tables or passages of the source.

Columns and labels:
[1] = target: IL-10R2 ECD (Homo sapiens) (UniProt Q08334)
[2] = target: IL-10R1 ECD (Homo sapiens) (UniProt Q13651); assay: SPR
[3] = target: IL-10R2 ECD (Homo sapiens) (UniProt Q08334); assay: SPR

Chain of IL-10R2 ECD (Homo sapiens) (Q08334 20-220): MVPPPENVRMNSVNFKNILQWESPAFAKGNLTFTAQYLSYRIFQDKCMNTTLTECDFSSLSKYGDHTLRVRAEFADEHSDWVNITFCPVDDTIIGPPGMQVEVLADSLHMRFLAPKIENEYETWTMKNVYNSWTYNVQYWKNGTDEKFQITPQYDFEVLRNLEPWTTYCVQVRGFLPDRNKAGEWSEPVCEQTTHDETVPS
Chain of IL-10 (P22301 19-178): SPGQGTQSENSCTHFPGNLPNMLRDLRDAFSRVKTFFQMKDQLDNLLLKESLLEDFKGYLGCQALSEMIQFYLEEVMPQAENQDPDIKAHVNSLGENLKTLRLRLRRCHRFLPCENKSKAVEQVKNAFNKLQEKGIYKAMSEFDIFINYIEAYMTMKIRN
Chain of IL-10/IL-10R1 complex (P22301 19-178): as above
Chain of IL-10/IL-10R1 complex (Q13651 22-235, further chain): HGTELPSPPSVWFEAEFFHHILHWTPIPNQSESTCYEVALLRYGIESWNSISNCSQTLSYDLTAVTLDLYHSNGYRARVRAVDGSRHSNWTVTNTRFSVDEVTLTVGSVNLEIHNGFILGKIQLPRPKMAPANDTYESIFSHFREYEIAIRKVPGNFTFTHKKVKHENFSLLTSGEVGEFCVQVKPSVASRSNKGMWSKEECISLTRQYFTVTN
Chain of IL-10R1 ECD (Homo sapiens) (Q13651 22-235): as the sequence (Q13651 22-235, further chain) above

Row | Substance | Kd [1] | Kd [2] | Kd [3]
1 | IL-10/IL-10R1 complex (from UniProt P22301) | 234 µM |  | 
2 | IL-10 (from UniProt P22301) |  | 0.00024 µM | 3000 µM
